Target: T1, BMC04 (uncultured bacterium (metagenome))
T1 chain: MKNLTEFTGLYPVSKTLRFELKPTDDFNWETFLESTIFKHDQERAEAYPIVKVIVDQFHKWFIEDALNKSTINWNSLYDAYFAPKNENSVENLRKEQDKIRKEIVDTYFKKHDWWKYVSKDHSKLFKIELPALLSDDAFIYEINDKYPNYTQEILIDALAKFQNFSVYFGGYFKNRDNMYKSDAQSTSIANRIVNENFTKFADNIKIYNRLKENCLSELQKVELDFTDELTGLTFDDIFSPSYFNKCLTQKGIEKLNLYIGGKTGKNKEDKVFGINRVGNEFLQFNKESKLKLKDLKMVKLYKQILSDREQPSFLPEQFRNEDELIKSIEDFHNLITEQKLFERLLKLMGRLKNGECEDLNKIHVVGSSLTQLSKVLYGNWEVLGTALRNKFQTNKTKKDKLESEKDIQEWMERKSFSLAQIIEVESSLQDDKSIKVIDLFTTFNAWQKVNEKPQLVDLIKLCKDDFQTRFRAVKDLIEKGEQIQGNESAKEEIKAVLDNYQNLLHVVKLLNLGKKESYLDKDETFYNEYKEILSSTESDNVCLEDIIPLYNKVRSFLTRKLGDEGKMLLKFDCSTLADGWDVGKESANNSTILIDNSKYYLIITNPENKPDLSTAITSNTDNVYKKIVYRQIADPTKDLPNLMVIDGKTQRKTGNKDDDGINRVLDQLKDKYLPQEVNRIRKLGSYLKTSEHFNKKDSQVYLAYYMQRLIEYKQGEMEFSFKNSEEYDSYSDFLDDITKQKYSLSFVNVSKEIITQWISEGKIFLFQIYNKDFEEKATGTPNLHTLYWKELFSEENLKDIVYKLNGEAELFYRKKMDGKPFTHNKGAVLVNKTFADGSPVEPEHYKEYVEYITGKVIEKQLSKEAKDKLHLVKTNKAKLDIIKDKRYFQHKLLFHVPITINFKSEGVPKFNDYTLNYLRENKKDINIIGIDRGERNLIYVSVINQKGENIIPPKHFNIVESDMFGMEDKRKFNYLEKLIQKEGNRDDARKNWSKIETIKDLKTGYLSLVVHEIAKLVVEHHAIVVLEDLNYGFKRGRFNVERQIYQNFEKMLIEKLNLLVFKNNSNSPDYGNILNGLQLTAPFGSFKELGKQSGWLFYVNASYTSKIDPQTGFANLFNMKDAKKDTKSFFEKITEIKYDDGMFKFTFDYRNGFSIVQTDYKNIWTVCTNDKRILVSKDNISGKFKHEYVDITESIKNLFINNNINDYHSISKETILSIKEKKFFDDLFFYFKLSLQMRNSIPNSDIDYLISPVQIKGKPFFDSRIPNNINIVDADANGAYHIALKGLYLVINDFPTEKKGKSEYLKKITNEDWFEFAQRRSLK
Assay: cell_activity; PAM not stated; E. coli depletion, 30 C
Method in brief: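 E. coli carrying arabinose-induced (0.2%) BMC nuclease, grown at 30° C., made electrocompetent and electroporated with 50-100 ng plasmid carrying gRNA against malQ. Transformants plated on selective M9-glucose agar with kanamycin/ampicillin (± nourseothricin), and growth scored after 48 h at 30° C.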

B1: malQ gRNA (BMC stem-loop + 24 nt spacer) ; malQ protospacer (ssRNA ; dsDNA)
RNA: GAUUUCUACUAUUGUAGAUGUGGCGGUACGUUGAUGCAUCGCG
DNA 1: GTGGCGGTACGTTGATGCATCGCG
DNA 2: CGCGATGCATCAACGTACCGCCAC
- activity: > 99.9 % colony reduction
